B1: H2M3547N (antibody, mouse IgG2, V domains shown)
VH: EAQLVESGGGLVQPGRSLRLSCTTSGFTFDDYTMHWVRQAPGKGLEWISDISWNGGTKGYADSVKGRFTISRDNAKNSLYLQMDSLRGEDTALYYCVKDKSGYGHFYFGLDVWGQGTTVTVSS
VL: DIQMTQSPSSLTASVGDRVTFTCRASQSISRHLSWYQQKPGKAPKLLIYAASSLESGVPSRFSGSGSGTDFTLTISSLHPEDFATYYCQQSYSNPPITFGQGTRLEIK
notes: H2M: mouse IgG2 Fc, human variable regions; divalent
B2: H2M3541N (antibody, mouse IgG2, V domains shown)
VH: EVQLVESGGGLVRPGRSLRLSCAASGFTFDDYTMHWVRQAPGKGLEWVSDISWNSGTIGYADSVKGRFTISRDNAKNSLYLQMNSLRPEDTALYYCAKDMSGYAHYYYYGMDVWGQGTTVTVSS
VL: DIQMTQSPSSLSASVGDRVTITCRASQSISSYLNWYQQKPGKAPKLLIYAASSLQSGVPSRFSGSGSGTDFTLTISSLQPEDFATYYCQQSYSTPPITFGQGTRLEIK
notes: as for B1
B3: H2M2774N (antibody, mouse IgG2, V domains shown)
VH: QVQLVESGGGVVQPGRSLRLSCVASGFTFRSYGMHWVRQAPGKGLQWVAMIYYDGKNKYYADSVRGRFTISRDNSKNTLYLQMNSLRAEDTAMYFCARGPGYNWLDPWGQGTLVTVSS
VL: EIVMTQSPATLSVSPGERATLSCRASQRISSNLAWYQQKPGQAPRLLIYGASTRATGSPARFSGSGSGTEFTLTISSLQSEDVAVYYCQQHNNWPLTFGGGTKVEIK
notes: as for B1
B4: H1M2712N (antibody, mouse IgG1, V domains shown)
VH: EVQLVESGGGLVQPGGSLRLSCAATGFTFDDFTMHWVRQAPGKGLEWVSGISWNSGSIGYVDSVKGRFTISRDNAKNSLYLQMNSLRAEDTALYYCAKDNSGYGYYYYGMDVWGQGTTVTVSS
VL: EIVMTQSPATLSVSPGERATLSCRASHSVSRNSAWYQQKPGQAPRLLIYGASTRATGIPARFSGSGSGTEFTLTISSLQSEDFAIYYCQQYNNWPLTFGGGTKVEIK
notes: H1M: mouse IgG1 Fc; divalent
B5: H2M2708N (antibody, mouse IgG2, V domains shown)
VH: QVQLVESGGGVVQPGRSLRLSCAASGFTFRSFGMHWVRQAPGRGLEWVAMIYFDGKNKYYADSVRGRFTISRDNSKNTLYLEMSSLRAEDTAVYFCARGPGYNWLDPWGQGTLVTVSS
VL: EIVMTQSPATLSVSPGERVTLSCRASQSISRNLAWYQQKPGQAPRLLIYGASTRATGVPARFSGSGSGTEFTLTISSLQSEDFAVFHCQQYNNRPLTFGGGTEVEIK
notes: as for B1
B6: H2M2777N (antibody, mouse IgG2, V domains shown)
VH: QVQLVESGGGVVQPGRSLRLSCIASGFTFRSYGMHWVRQAPGKGLEWVAMIYYDGNNKYYADSVRGRFTISRDNSKNTLYLQMNSLRADDTAVYFCARGPGYNWLDPWGQGTLVTVSS
VL: EIVMTQSPATLSVSPGERATLSCRASQSVSSNLAWYQQKPGQAPRLLIYGASTRATGIPARFSGSGSGTEFTLTISSLQSEDFAVYYCQQYNNRPLTFGGGTKVEIK
notes: as for B1
B7: H2M2862N (antibody, mouse IgG2, V domains shown)
VH: QVQLVESGGGVVQPGRSLRLSCAASGFTFRSYGMHWVRQAPGKGLEWVAMIYYDGNNKKYADSVRGRFTISRDNSKNTLYLQMNSLRVEDTAVYFCARGPGYNWLDPWGQGTLVTVSS
VL: EIVMTQSPATLSVSPGERATLSCRASQSVSRNLAWYQQKPGQAPRLLIYGASTRATDIPARFSGSGSGTEFILNISSLQSEDFALYYCQQYSNWPLTFGGGTEVEIK
notes: as for B1
B8: H2M2885N (antibody, mouse IgG2, V domains shown)
VH: QVQLVESGGGVVQPGRSLRLSCAASGFTFRSFGMHWVRQAPGRGLEWVAMIYFDGKNKYYADSVRGRFTISRDNSKNTLYLEMSSLRAEDTAVYFCARGPGYNWLDPWGQGTLVTVSS
VL: EIVMTQSPATLSVSPGERVILSCRASQSISRNLAWYQQKPGQAPRLLIYGATTRATGVPARFSGSGSGTEFTLTISSLQSEDFAVFYCQQYNNRPLTFGGGTEVEIK
notes: as for B1
B9: H2M2710N (antibody, V domains shown)
VH: QVQLVESGGGVVQPGRSLRLSCAASGFTFRSFGMHWVRQAPGRGLEWVAMIYFDGKNKYYADSVRGRFTISRDNSKNTLYLEMSSLRAEDTAVYFCARGPGYNWLDPWGQGTLVTVSS
VL: EIVMTQSPATLSVSPGERATLSCRASQSVSRNLAWYQQKPGQAPRLLIYGASTRATGVPARFSGSGSGTEFTLTISSLQSEDFAVFHCQQYNNRPLTFGGGTEVEIK
notes: as for B1
B10: H2M2886N (antibody, mouse IgG2, V domains shown)
VH: QVQLVESGGGVVQPGRSLRLSCAASGFTFRSFGMHWVRQAPGRGLEWVAMIYFDGKNKYYADSVRGRFTISRDNSKNTLYLEMSSLRAEDTAVYFCARGPGYNWLDPWGQGTLVTVSS
VL: EIVMTQSPATLSVSPGERVILSCRASQSISRNLAWYQQKPGQAPRLLIYGATTRATGVPARFSGSGSGTEFTLTISSLQSEDFAVFYCQQYNNRPLTFGGGTEVEIK
notes: as for B1
B11: H2M2775N (antibody, mouse IgG2, V domains shown)
VH: QVQLVESGGGVVQPGRSLRLSCAASGFTFRSFGMHWVRQAPGRGLEWVAMIYFDGKNKYYADSVRGRFTISRDNSKNTLYLEMSSLRAEDTAVYFCARGPGYNWLDPWGQGTLVTVSS
VL: EIVMTQSPATLSVSPGERVILSCRASQSISRNLAWYQQKPGQAPRLLIYGATTRATGVPARFSGSGSGTEFTLTISSLQSEDFAVFYCQQYNNRPLTFGGGTEVEIK
notes: as for B1
B12: H2M2711N (antibody, V domains shown)
VH: QVQLVESGGGVVQPGRSLRLSCAASGFTFRSFGMHWVRQAPGRGLEWVAMIYFDGKNKYYADSVRGRFTISRDNSKNTLYLEMSSLRAEDTAVYFCARGPGYNWLDPWGQGTLVTVSS
VL: EIVMTQSPATLSVSPGERATLSCRASQSVSRNLAWYQQKPGQAPRLLIYGASTRATGVPARFSGSGSGTEFTLTISSLQSEDFAVFHCQQYNNRPLTFGGGTEVEIK
notes: as for B1
B13: H2M3540N (antibody, mouse IgG2, V domains shown)
VH: QVHLEESGGGVVQPGRSLRLSCSASGFTFSSYAMHWVRQAPGKGLEWVAVIWYDGTNKYYLDSVKGRFTISRDNSKNTLFLQMNSLRAEDTAVYYCARDRGSIITHWGQGTLVTVSS
VL: DIQMTQSPSSLSASIGDRVTITCRASQNISSYLNWYQQKPGKAPKLLIYAASSLQSGVPSRFSGSGSGTDFTLTISSLQPEDFATYYCQQTYSTPPITFGQGTRLEIK
notes: as for B1
B14: H2M3563N (antibody, mouse IgG2, V domains shown)
VH: EVHLVESGGGLVQPGRSLRLSCAASGFTFDDYTMHWVRQAPGKGLEWVSDISWNSGSIGYADSVKGRFTVSRDNAKNSLYLQMNSLRGEDTALYYCAKDMSGYGHYGKYGMDVWGQGTTVTVSS
VL: DIQMTQSPSSLSASVGDRVTITCRASQSIRSYLNWYQQKPGKVPKLLIYAASSLQSGVPSRFSGSGSGTDFTLTINSLQPDDFATYYCQQTYSNPPITFGQGTRLEIK
notes: as for B1
B15: H2M3543N (antibody, mouse IgG2, V domains shown)
VH: EVQLVESGGGLVQPGRSLRLSCAASGFTFDDYTMHWVRQAPGKGLEWVSDISWNSGSIGYADSVKGRFTVSRDNAKNSLYLQMNSLRGEDTALYYCAKDMSGYAHYGYYGMDVWGQGTTVTVSS
VL: DIQMTQSPSSLSASVGDRVTITCRASQSIRNYLNWYQQKPGKVPKLLIYAASSLQSGVPSRFSGSGSGTDFTLTISSLQPEDFATYYCQQSYSNPPITFGQGTRLEIK
notes: as for B1

How the values were obtained:
[1] = biological target: T1, human CD3 expressed on cells (Jurkat cells, a CD3+ human T-cell line; human PBMC T cells) (human, UniProt P07766 23-207; P04234 22-171); assay: FACS on Jurkat cells
T1 construct: Cell-surface CD3 within the T cell receptor complex
T1 sequence (P07766 23-207 limits assumed, chain 1 of 2): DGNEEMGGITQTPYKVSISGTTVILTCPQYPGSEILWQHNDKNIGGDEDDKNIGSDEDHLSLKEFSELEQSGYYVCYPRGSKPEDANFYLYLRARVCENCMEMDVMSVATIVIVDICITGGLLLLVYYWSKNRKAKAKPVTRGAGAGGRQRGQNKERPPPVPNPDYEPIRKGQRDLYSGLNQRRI
T1 sequence (P04234 22-171 limits assumed, chain 2 of 2): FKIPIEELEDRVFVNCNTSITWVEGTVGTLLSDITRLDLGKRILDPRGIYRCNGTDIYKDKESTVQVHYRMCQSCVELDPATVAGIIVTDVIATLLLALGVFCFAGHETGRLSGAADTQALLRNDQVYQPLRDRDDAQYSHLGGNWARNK
Experimental: FACS data was acquired using the following protocol: Cells at 2×10⁵ per well were incubated with serially diluted antibodies for 30 min on ice. Post incubation, cells were washed and secondary antibody was added and incubated for an additional 30 minutes. After incubation, cells were washed, re-suspended in cold PBS containing 1% BSA and analyzed by flow cytometry with viable Jurkat cells gated by side and forward scatters. The EC₅₀s for cell binding titration were determined using Prism software with values calculated using a 4-parameter non-linear regression analysis.

[2] = biological target: T2, Soluble heterodimeric CD3 protein (hCD3-epsilon/hCD3-delta) with either a human Fc tag (hFcΔAdp/hFc) or a … (human, UniProt P07766 23-126; P04234 22-105); assay: SPR Biacore 25C antigen-capture
T2 construct: also called hCD3ε/δ; not shown: Fc tag: human (hFcΔAdp/hFc)
T2 sequence (P07766 23-126 limits assumed, stated change not applied, chain 1 of 2): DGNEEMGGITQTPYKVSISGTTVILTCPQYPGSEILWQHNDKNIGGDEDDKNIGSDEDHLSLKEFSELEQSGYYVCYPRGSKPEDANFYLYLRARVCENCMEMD
T2 sequence (P04234 22-105 limits assumed, stated change not applied, chain 2 of 2): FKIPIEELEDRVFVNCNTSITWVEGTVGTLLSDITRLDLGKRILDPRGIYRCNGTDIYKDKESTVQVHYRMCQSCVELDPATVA
Procedure, shortened: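 Rate constants fitted to a 1:1 model, giving KD as kd/ka and dissociative half-life as ln2/(60·kd) minutes. Antibodies flowed over CD3ε/δ heterodimer captured on anti-human or anti-mouse Fc surfaces, run on a Biacore T200 at 25 °C.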

[3] = biological target: T1, human CD3 expressed on cells (Jurkat …); assay: cell-based or functional assay

Row | Binder | EC50 [1] [pM] | Kd [2] [pM] | T½ [2] [min] | koff [2] [s⁻¹] | EC50 [M] hPBMC Proliferation [3] [M] | kon [2] [M⁻¹ s⁻¹]
1 | B1 | 2710 | ≤ 21.5 | 1160 | ≤ 1e-05 | 5.02e-12 | –
2 | B2 | 3700 | 13800 | 10 | 0.00116 | 6.4e-12 | 84000
3 | B3 | 352 | 135 | 34 | 0.000336 | 4.92e-10 | 2.49e+06
4 | B4 | 21900 | 295 | 846 | 1.37e-05 | 1.28e-10 | 47500
5 | B5 | 658 | 131 | 51 | 0.000227 | 2.69e-08 | 1.73e+06
6 | B6 | 2160 | 554 | 36 | 0.000321 | 2.51e-11 | 580000
7 | B7 | 7680 | 541 | 36 | 0.000321 | 6.72e-13 | 591000
8 | B8 | 2090 | 111 | 76 | 0.000152 | 2.49e-12 | 1.37e+06
9 | B9 | 710 | 153 | 48 | 0.000243 | 2.11e-10 | 1.59e+06
10 | B10 | 3970 | 95.6 | 85 | 0.000136 | 2.69e-12 | 1.42e+06
11 | B11 | 1320 | 138 | 53 | 0.000216 | 1.09e-09 | 1.56e+06
12 | B12 | 1160 | 151 | 48 | 0.00024 | 6.48e-10 | 1.59e+06
13 | B13 | 3990 | 231 | 20 | 0.000587 | 3.16e-12 | 2.55e+06
14 | B14 | 1070 | 77.3 | 242 | 4.77e-05 | 7.74e-12 | 616000
15 | B15 | 5630 | 653 | 145 | 7.96e-05 | 6.12e-12 | 122000
